From publication PMC7135998

Target: α-tubulin of purified porcine brain tubulin (porcine) (UniProt P02550)
Sequence of UniProt P02550 (P02550 whole entry): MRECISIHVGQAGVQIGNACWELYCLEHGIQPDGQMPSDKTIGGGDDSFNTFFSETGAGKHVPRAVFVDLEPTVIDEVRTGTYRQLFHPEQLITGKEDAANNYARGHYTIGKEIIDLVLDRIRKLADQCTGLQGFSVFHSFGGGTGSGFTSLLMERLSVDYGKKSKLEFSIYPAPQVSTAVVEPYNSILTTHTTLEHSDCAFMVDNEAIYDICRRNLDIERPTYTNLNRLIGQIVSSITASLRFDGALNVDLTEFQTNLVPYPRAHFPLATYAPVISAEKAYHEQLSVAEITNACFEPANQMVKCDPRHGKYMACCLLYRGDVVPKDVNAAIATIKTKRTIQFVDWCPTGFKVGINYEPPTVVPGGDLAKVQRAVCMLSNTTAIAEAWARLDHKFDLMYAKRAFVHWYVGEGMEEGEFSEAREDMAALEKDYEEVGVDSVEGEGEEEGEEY

- methylation of purified tubulin by GST-SET8 ([3H]AdoMet, autoradiogram) with increasing concentrations of the LSF inhibitor FQI1, up to 100 μM: 3 fold
Substance: LSF present in purified porcine brain tubulin preparations (natural protein)
